Test results published in the nanobody polyreactivity screen of Harvey et al. (2022).

Assay: yeast display, Sf9 membrane polyspecificity reagent, FACS + sequencing; frameworks hold sequencing errors
Method in brief: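 Genes from sorted yeast were amplified by colony PCR, read by MiSeq 2 × 250 sequencing and filtered on CDR length. These cells carried a synthetic nanobody library in Saccharomyces cerevisiae BJ5465 and were sorted by FACS into low and high (top ~1%) gates on anti-HA and streptavidin fluorescence. Polyreactivity is labelled according to the gate of origin.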

Sequence	polyreactivity (PSR sort gate)
QVQLVESGGGLVQAGGSLRLTCAASGRTFYYYAMGWYRQAPGKESELVAAINTRGVSTYYADSVKGRFTISRDNAKNTVYLQMNSLKPEDTAVYYCNKGFSYGRDYWGQGTQVTVSS	high polyreactivity
QVQLVESGGGLVQAGGSLRLTCAASGRTLGGYTMGWSRQAPGKERELVAAITTGGSTNYADSVKGRFTISRDNAKNTVYLQMNSLKPEDTAVYYCATELVFDKRYWYDYWGQGTQVTVSS	low polyreactivity
QVQLVESGGGLVQAGGSLRLTCAASGRTSNGYAMGWYRQAPGNERELVAAYADSVKGRFTISRDNAKNTVYLQMNSLKPEETAVYYCNADYDPVSRVGYVYWAYYYWGQGTQVTVSS	low polyreactivity
QVQLVESGGGLVQAGGSLRLTCAASGSIFEVNAMGWYRQAPGKERELVAGISNADSTNYADSVKGRFTISRDNAKNTVYLQMNSLKPEDTAVYYCATDLDRDLPKDLLGPEYDYWGQGTQVTVSS	low polyreactivity
QVQLVESGGGLVQAGGSLRLTCAASGSIFGWYVMGWYIPAPGKERELVAAISSVGSTYYADSVKGRFTISRDNAKNTVYLQMKSLKREDTAVYYCAKLRYPYLFWDDSEYWGQGTQVTVSS	low polyreactivity
QVQLVESGGGLVQAGGSLRLTCAASGSIFLSYAMGWYRQPPGKDRELVAAISGGVNTYYADSVKGSFTISRDNAKNTVYLQMNSLKPEDTAVYYCYAVPHIYAEGTAYNYWGQGTQVTVSS	low polyreactivity
QVQLVESGGGLVQAGGSLRLTCAASGSIFPFYAKGWYRQATGKERELVAAISDSGGDTYYADSVKGRFTISRDNAKNTVYLQMNSLKPEDTAVYYCAADCFYNSFNYWGQGTQVTVSS	low polyreactivity
QVQLVESGGGLVQAGGSLRLTCAASGSIFTTNAKGWYRPAPGTERELVASITWSGGSTYADSVKGRFTISRDNAKYTVYLQMNILKPEDTAVYYGATDPFYPVPPEYEYWGQGTQVTVSS	low polyreactivity
QVQLVESGGGLVQAGGSLRLTCAASGSIFWDNAMGWYRQAPGKERALFAAITSSGGSTHYADSVKGRFTISRDNAKNTVYLQMYSLKPEDTAVYYCAARRYYGVYYAFLYWGQGTQVTVSS	high polyreactivity
QVQLVESGGGLVQAGGSLRLTCAASGSIFWGNAMGWYRQAPGKERELVATISWSAGSTYYADSVKGRFTISRDNAKNTVYLQMNSLKPEDTGVYYCATDFRHSTLYYYWGQRTQVTVSS	low polyreactivity
QVQLVESGGGLVQAGGSLRLTCAASGSIFWPNAMGWYRPAPGKERELVAAISWGTGSTYYADSVKGRFTISRDNAKNTVYLQMNSLKPEDTAVYYCAADGAYLDPYYDYWGQGTQVTVSS	low polyreactivity
QVQLVESGGGLVQAGGSLRLTCAASGSIFWRNTMGWYRQAPGKERELVAAIRNVGSTYYADSVKGRFTISRDNAKNTVYLQMNSLKPEDTAVYYCAVVYPARGSGNDSWGQGSQVTVSS	high polyreactivity
QVQLVESGGGLVQAGGSLRLTCAASGSIFWWYGVGWYRQAPGKERELVADITSGGGTYYADSVKGRFTISRDNAKNTVYLQMNSLKPEDTAVYYCAADDRAYRFDYYFDYWGQGTQVTVSS	low polyreactivity
QVQLVESGGGLVQAGGSLRLTCAASGSIFYYNAMGWYRQAPGKERELVAAISSDGSTYYADSVKGRFTISRDNAKNTVYLQMNSLKPEDTAVYYSAAATLTWSRWGSYYEYDYWGQGTQVTVSS	low polyreactivity
QVQLVESGGGLVQAGGSLRLTCAASGSNFQYYAMGWYRQAPGKERELVAAISSGDTTNYADSVKGRFTISRDNAKNTVYLQMNSLKPEDTAVYYCNAEGGWYDWDDYWGQGTQVTVSS	low polyreactivity
QVQLVESGGGLVQAGGSLRLTCAASGSNFWSYDMGWYRQAPGKERELVATITSGDSTYYADSVKGRFTISRDNAKNTVYLQMYSLKPEDTAVYYCAAGTYYRRPYWHRDYDYWGQGTQVTVSS	low polyreactivity

Sequence	polyreactivity (PSR sort gate)
QVQLVESGGGLVQAGGSLRLTCAASGSTFGSYAMGRYRQAPGKERELVAVAISWSGGNTYYADSVKGRFTNSRDNAKNTFYLQMNSLKPEDTAVYYFAAYGTTGVYRGPGYDYWGQGTQVTVSS	low polyreactivity
QVQLVESGGGLVQAGGSLRLTCAASGSTFHLYAMGWYRQAPGKEREFVAAIRGRGGNTYADSVKGRFTISRDNAKNTVYLQMNSLKPEDTAVNYCAAPLLRDLRSPYSYNYWGQGTQVTVSS	low polyreactivity
QVQLVESGGGLVQAGGSLRLTCAASGSTFPSYAMGWYRQAPGKERELVAAINSGGGTNYADSVKGRFTISRDNAKNTVYLHMNSLKPEDTAVYYCAKSRYDYTKTEGGYWGQGSQVTVSS	low polyreactivity
QVQLVESGGGLVQAGGSLRLTCAASGSTFPYNAMGWYRPATGKERELVASITGGRKKYADSVKGRFTISRDNEKNTVYLQMNRLKREDTAVYYCAADYYSLWIRRDSNYWGQGTQVTVSS	low polyreactivity
QVQLVESGGGLVQAGGSLRLTCAASGSTFSGYAMGWYRQAPGKERELVATISGGGSTYYADSVKGRFTISRDNAKNTVYLQMNILKPEDTAVYYCNAQGYGIFTSSLDYWGQGTQVTVSS	low polyreactivity
QVQLVESGGGLVQAGGSLRLTCAASGSTFSVYDMGWYRKAPGKERELVAAIDVTGGSTYYADSVKGRFTISRDNAKNTVSLQMNSLKPEDTAVYYCNAGKCYSLYGMYYWGQGTQVTVSS	low polyreactivity
QVQLVESGGGLVQAGGSLRLTCAASGTFFMGWYRQAPGKERELVAGISISDGSTYYADSVKGRFTISRDNAKNTVYLQMNSLKPEDTAVYYCAADSHYLYDYWGQGTQVTVSS	low polyreactivity
QVQLVESGGGLVQAGGSLRLTCAASGYTFRRTGMGWYRQAPGKERELVAAITNGGSTKYADSVKGRYTISRDNAKNTVYLQMNSLKPEDTAVYDCFYYVYAYDYWGQGTQVTLSS	high polyreactivity
QVQLVESGGGLVQAGGSLRLTCAATGSILSRYAMGWYRLAPGKERELVATITRRGGSTFYADSVKGRFTISRDIAKNTVYLQMNSLKPEDTAVYYCAVGRLFWGQGTQVTVSS	low polyreactivity
QVQLVESGGGLVQAGGSLRLTCADTGNIFVRNAMGWYRQAPGKERELVADISTGADTNYADSVKGRFTISRDNAKNTFYLQKNSLKPEDTAVYYCAAAAEVGEIGYWPMVYWGQVTQVTVSS	high polyreactivity
QVQLVESGGGLVQAGGSLRLTCDASGFTFPFYTMGWYRQEPGKERELVAAISASGGRTYYADSVKGRFTISRDNAKNTVYLQMNSLKPEDTGVYYCATYPTPKYFRWRGDYWGQGTQVTVSS	high polyreactivity
QVQLVESGGGLVQAGGSLRLTCDASGSTFYPYAMGWYRQAPWKERELVAAISSRDGRTYYADSVKGRFTISRDNAKNTVYLQMNSLKPEDTAVYYCAATSFNNGHRYDYWGQGTQVTVSS	high polyreactivity
QVQLVESGGGLVQAGGSLRLTCSASGYTFPRYAMGWYRQAPGKERELVAVITRRGGSTYYADSVKGRFTISRDNAKNTVYLQMNSLKPEDTSVYYCAASDPSNKSSRPGYSYDSDSWGQGTQVTVSS	high polyreactivity
QVQLVESGGGLVQAGGSLRLTFAASGRTFGYYAMGWSRQAPGKEREWVAAISWSGTSTYYADSVKGRFTISRDNAKNTVYLQLNSLKPEDTAVYYCNAVNVAVQWTSRYYYWGHGTQVTVSS	high polyreactivity
QVQLVESGGGLVQAGGSLRLTSAASGRIFSHNAMGWCRPAPGKERELVAAITVGGGSTFYADSVKGRFTISRDNAKNTVYLQMNSLKPEDTAVYYCAADYYTQWQTRYDYWGQGTQVTVSS	low polyreactivity
QVQLVESGGGLVQAGGSLRLTWAASGSTYESNAMGWYRPAPGKERELVAAISSSGGSTYYADSVKGRFTITRDNAKNTVYLQMNSLKPEDTAVYYGNKGGLSDYDYWGQGTQVTVSS	high polyreactivity
